In test [1] the target is T1, Soluble GPVI-Fc (human, UniProt Q9HCN6 21-269).
T1 construct: also called soluble human GPVI
T1 chain: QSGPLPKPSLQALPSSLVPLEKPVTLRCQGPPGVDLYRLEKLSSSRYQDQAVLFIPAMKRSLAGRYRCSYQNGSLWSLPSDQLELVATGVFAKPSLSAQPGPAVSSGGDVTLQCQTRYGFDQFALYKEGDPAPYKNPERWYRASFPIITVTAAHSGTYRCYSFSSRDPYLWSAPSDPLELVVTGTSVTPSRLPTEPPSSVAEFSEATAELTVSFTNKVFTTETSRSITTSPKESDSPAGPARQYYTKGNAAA
As to the kind of experiment: SPR, BIAcore 2000, GPVI-Fc immobilised, Fab in flow, PBS pH 7.4. The method, then:
Soluble GPVI-Fc (produced as described in Example 2) was immobilized in acetate buffer 10 mM pH 6 at a dose ranging from 960 to 1071 RU (corresponding about 6.4 to 7.15 fmol/mm²) onto a Carboxy-Methyl Dextran CMS sensor chip using the amine coupling method (Wizard procedure). The protein is then passed over the immobilized GPVI-Fc in PBS pH 7.4 (10 mM phosphate, 138 mM NaCl, 2.7 mM KCl, pH 7.42 at 25.4° C.) at a flow rate of 20 μL/min at 25° C. Kinetic constants (KA, KD, kₒₙ, koff) and affinity are determined using BIAevaluation version 3.0 software, by fitting data to binding model. PBS pH 7.4 is the running buffer.
On the technique in general: SPR reads the build-up and loss of mass on a sensor chip optically.

For test [2], the target named is T2, human Glycoprotein VI (GPVI) on platelets (human, UniProt Q9HCN6 21-339).
T2 chain: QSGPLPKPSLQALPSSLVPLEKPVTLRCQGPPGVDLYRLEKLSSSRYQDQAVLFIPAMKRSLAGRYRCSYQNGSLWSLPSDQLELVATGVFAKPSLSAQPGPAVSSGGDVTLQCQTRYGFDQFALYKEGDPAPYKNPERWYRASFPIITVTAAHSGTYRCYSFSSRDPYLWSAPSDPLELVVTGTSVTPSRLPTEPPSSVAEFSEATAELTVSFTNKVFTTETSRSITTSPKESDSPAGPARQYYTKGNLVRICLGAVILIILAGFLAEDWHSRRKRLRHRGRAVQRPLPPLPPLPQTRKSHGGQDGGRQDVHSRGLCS
The test can be described thus: cell-based or functional assay.

The target of test [3] is T3, murine GPVI (mouse, UniProt P0C191 22-265, limits assumed).
T3 construct: also called mouse GPVI
T3 sequence (looked up): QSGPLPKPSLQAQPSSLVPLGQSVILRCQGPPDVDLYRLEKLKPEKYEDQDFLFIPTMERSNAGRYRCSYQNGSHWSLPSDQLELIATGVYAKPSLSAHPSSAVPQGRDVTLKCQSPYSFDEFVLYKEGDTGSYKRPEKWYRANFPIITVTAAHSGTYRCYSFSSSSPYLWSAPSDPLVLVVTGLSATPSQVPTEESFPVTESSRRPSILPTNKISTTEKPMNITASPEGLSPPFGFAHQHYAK
The test can be described thus: not described.

B1: ACT006 antibody (humanized Fab fragment) (Fab, V domains shown)
VH: QVQLVQSGAEVKKPGASVKVSCKASGYTFTSYNMHWVRQAPGQGLEWMGGIYPGNGDTSYNQKFQGRVTMTRDTSTSTVYMELSSLRSEDTAVYYCARGTVVGDWYFDVWGQGTLVTVSS
VL: DIQMTQSPSSLSASVGDRVTITCSASQSLENSNGNTYLNWYQQKPGKAPKLLIYRVSNRFSGVPSRFSGSGSGTDFTLTISSLQPEDFATYYCLQLTHVPWTFGQGTKVEIKR
In test [1], B1 had a Ka of 1.4e+08 M⁻¹, a dissociation constant (Kd) of 7.3 nM, a koff of 0.000476 s⁻¹ and an association rate constant (kon) of 66500 M⁻¹ s⁻¹.

B2: ACT017 antibody (humanized Fab fragment) (Fab, V domains shown)
VH: QVQLVQSGAEVKKPGASVKVSCKASGYTFTSYNMHWVRQAPGQGLEWMGGIYPGNGDTSYNQKFQGRVTMTRDTSTSTVYMELSSLRSEDTAVYYCARGTVVGDWYFDVWGQGTLVTVSS
VL: DIQMTQSPSSLSASVGDRVTITCRSSQSLENSNGNTYLNWYQQKPGKAPKLLIYRVSNRFSGVPSRFSGSGSGTDFTFTISSLQPEDIATYYCLQLTHVPWTFGQGTKVEITR
notes: Coupled to Alexa488 for the flow cytometry assay; also called ACT17; humanized Fab ACT017
In test [1], B2 had a Ka of 2.57e+08 M⁻¹, a Kd of 4.1 nM, a koff of 0.000232 s⁻¹ and an association rate constant (kon) of 59700 M⁻¹ s⁻¹. Further, in test [2], the “mean IC50, intensity of collagen-induced platelet aggregation” value was 3.2 µg/mL and the “mean IC50, velocity of collagen-induced platelet aggregation” value was 2 µg/mL. Also, the binding result in test [3] is listed as “no binding”.

The term Kd denotes the free concentration of one partner at which half of the binding sites on the other are occupied at equilibrium, for simple one-to-one binding. Low values mean a tighter complex, high ones a looser complex. The koff is a measure of how fast the partners let go of each other. The low end stands for a long-lived complex, the high end for a short-lived complex. A word on the kon: it is the second-order rate constant of association.
